In series [1] the target is T1, AthPEPCK1 WT (Arabidopsis thaliana, UniProt Q9T074).
T1 sequence (Q9T074 2-671): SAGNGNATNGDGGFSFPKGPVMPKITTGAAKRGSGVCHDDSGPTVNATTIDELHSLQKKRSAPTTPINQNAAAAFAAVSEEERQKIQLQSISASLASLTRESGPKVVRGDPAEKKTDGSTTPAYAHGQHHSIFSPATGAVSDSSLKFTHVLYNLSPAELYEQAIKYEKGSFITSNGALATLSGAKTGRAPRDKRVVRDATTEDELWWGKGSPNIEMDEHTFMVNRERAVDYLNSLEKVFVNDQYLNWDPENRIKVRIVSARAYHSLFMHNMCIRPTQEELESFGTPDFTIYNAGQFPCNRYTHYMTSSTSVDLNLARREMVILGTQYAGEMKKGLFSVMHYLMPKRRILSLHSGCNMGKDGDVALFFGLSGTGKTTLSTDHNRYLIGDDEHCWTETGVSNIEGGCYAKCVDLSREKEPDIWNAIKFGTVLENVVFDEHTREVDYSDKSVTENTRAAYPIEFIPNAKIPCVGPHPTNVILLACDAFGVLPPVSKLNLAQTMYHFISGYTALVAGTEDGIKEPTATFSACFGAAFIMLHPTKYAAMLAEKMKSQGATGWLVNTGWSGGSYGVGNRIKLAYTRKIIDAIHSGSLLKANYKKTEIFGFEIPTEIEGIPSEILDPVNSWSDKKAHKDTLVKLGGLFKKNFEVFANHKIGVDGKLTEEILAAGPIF
Put plainly: activity with effector, carboxylation direction. The format is biochemical. Conditions: allosteric activator; 10 mM PEP, 0.13 mM ADP.

Series [2] has as its target T2, AthPEPCK1 Δ101 (Arabidopsis thaliana, UniProt Q9T074).
T2 sequence (Q9T074 102-671): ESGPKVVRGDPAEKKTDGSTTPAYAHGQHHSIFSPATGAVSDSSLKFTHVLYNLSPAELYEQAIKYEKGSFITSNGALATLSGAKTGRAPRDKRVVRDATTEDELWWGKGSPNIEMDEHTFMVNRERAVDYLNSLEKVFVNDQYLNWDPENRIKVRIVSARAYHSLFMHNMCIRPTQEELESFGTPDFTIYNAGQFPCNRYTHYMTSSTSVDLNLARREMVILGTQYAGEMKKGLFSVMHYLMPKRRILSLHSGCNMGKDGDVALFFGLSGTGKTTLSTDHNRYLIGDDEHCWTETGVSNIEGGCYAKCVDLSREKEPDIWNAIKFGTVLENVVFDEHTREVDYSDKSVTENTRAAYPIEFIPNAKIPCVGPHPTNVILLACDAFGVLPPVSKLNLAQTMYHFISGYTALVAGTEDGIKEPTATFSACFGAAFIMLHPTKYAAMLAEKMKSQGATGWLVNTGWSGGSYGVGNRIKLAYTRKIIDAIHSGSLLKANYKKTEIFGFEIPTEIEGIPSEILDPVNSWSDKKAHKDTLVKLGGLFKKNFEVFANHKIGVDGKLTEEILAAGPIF
The series can be described thus: activity with effector, decarboxylation direction. The format is biochemical. Particulars: allosteric activator; 0.5 mM OAA, 0.3 mM ATP.

Substrate in series [3]: Nc1ncnc2c1ncn2[C@@H]1O[C@H](COP(=O)(O)OP(=O)(O)OP(=O)(O)O)[C@@H](O)[C@H]1O
Put plainly: purified protein. Conditions: 0.5 mM OAA.

Substrate in series [4]: Nc1ncnc2c1ncn2[C@@H]1O[C@H](COP(=O)(O)OP(=O)(O)O)[C@@H](O)[C@H]1O
The series can be described thus: steady-state kinetics, carboxylation direction. The format is biochemical, Arabidopsis thaliana.

The text below walks through data of article doi:10.1101/2020.07.29.226720v1 (biorxiv, 2020).

Usually Km stands for the concentration of substrate that gives half-maximal velocity. One may read the kcat as the number of substrate molecules converted per active site and unit of time at saturation.

In series [1], `O=C(O)C[C@H](O)C(=O)O` [malate] returned a fold activation of 2 fold.
`O=P(O)(O)OC[C@H]1OC(O)[C@H](O)[C@@H](O)[C@@H]1O` (stereo partly shown) [Glc6P]: the fold activation in series [2] worked out at 2 fold.

B1: AthPEPCK1 Δ19 (Arabidopsis thaliana) (protein)
chain: GPVMPKITTGAAKRGSGVCHDDSGPTVNATTIDELHSLQKKRSAPTTPINQNAAAAFAAVSEEERQKIQLQSISASLASLTRESGPKVVRGDPAEKKTDGSTTPAYAHGQHHSIFSPATGAVSDSSLKFTHVLYNLSPAELYEQAIKYEKGSFITSNGALATLSGAKTGRAPRDKRVVRDATTEDELWWGKGSPNIEMDEHTFMVNRERAVDYLNSLEKVFVNDQYLNWDPENRIKVRIVSARAYHSLFMHNMCIRPTQEELESFGTPDFTIYNAGQFPCNRYTHYMTSSTSVDLNLARREMVILGTQYAGEMKKGLFSVMHYLMPKRRILSLHSGCNMGKDGDVALFFGLSGTGKTTLSTDHNRYLIGDDEHCWTETGVSNIEGGCYAKCVDLSREKEPDIWNAIKFGTVLENVVFDEHTREVDYSDKSVTENTRAAYPIEFIPNAKIPCVGPHPTNVILLACDAFGVLPPVSKLNLAQTMYHFISGYTALVAGTEDGIKEPTATFSACFGAAFIMLHPTKYAAMLAEKMKSQGATGWLVNTGWSGGSYGVGNRIKLAYTRKIIDAIHSGSLLKANYKKTEIFGFEIPTEIEGIPSEILDPVNSWSDKKAHKDTLVKLGGLFKKNFEVFANHKIGVDGKLTEEILAAGPIF
As to B1, in series [3], the Michaelis constant (Km) turned out to be 29 ± 6 µM and the kcat came out at 3.38 ± 0.06 s⁻¹. Moreover, in series [4] (5 mM PEP), the Km stood at 40 ± 1 µM and the kcat came out at 2.64 ± 0.06 s⁻¹.

B2: AthPEPCK1 Δ101 (Arabidopsis thaliana) (protein)
chain: T2 sequence (Q9T074 102-671)
B2: in series [3], the Km was 80 ± 10 µM and the kcat came out at 3.9 ± 0.2 s⁻¹. Also, in series [4] (15 mM PEP), the Km came to 57 ± 6 µM and the kcat was found to be 3.01 ± 0.08 s⁻¹.
